Assay results taken from US20230212319A1, “NOVEL ANTIGEN BINDING DOMAINS AND SYNTHETIC ANTIGEN RECEPTORS INCORPORATING THE SAME” (University of Southern California, priority 2020, published 2023).

B1: 22087 (protein)
chain: MALPVTALLLPLALLLHAARPQVQLVESGGGLVQPGGSLRLSCAASGFTFTNHAMSWVRQAPGKGLELVSSISGNGRTTYYADSVKGRFTISRDISKNTLDLQMNSLRAEDTAVYYCAKDGGETLVDSRGQGTLVTVSSLEGSGGGGSGGGGSGEDLKNVFPPEVAVFEPSEAEISHTQKATLVCLATGFYPDHVELSWWVNGKEVHSGVCTDPQPLKEQPALNDSRYCLSSRLRVSATFWQNPRNHFRCQVQFYGLSENDEWTQDRAKPVTQIVSAEAWGRADCGFTSESYQQGVLSATILYEILLGKATLYAVLVSALVLMAMVKRKDSRGRAKRSGSGATNFSLLKQAGDVEENPGPTSMDWIWRILFLVGAATGAHSFEEVQLLESGGGLVQPGGSLRLSCAASGFTFSSYAMSWVRQAPGKGLEWVSSISGSGDYIYYADSVKGRFTISRDISKNTLYLQMNSLRAEDTAVYYCAKEGTGANSSLADYRGQGTLVTVSSTRGSIPEDTFFPSPESSCDVKLVEKSFETDTNLNFQNLSVIGFRILLLKVAGFNLLMTLRLWSS
B2: 22076 (protein)
chain: MALPVTALLLPLALLLHAARPQLQLQESGPGLVKPSETLSLTCTVSGDSISSGDYYWGWIRQPPGKGLEWIGHIYYSGVTYYNPSLKSRVTISVDTSRNQFSLKLSSVTAADTAVYYCTREDSSNWRSRGQGTLVTVSSLESGGGGSFEQVQLVESGGGLVQPGGSLRLSCAASGFTFTNHAMSWVRQAPGKGLELVSSISGNGRTTYYADSVKGRFTISRDISKNTLDLQMNSLRAEDTAVYYCAKDGGETLVDSRGQGTLVTVSSTRASTKGPSVFPLAPSSKSTSGGTAALGCLVKDYFPEPVTVSWNSGALTSGVHTFPAVLQSSGLYSLSSVVTVPSSSLGTQTYICNVNHKPSNTKVDKRVEPKSCIPEDTFFPSPESSCDVKLVEKSFETDTNLNFQNLSVIGFRILLLKVAGFNLLMTLRLWSSRAKRSGSGVKQTLNFDLLKLAGDVESNPGPSRGHMTEYKPTVRLATRDDVPRAVRTLAAAFADYPATRHTVDPDRHIERVTELQELFLTRVGLDIGKVWVADDGAAVAVWTTPESVEAGAVFAEIGPRMAELSGSRLAAQQQMEGLLAPHRPKEPAWFLATVGVSPDHQGKGLGSAVVLPGVEAAERAGVPAFLETSAPRNLPFYERLGFTVTADVEVPEGPRTWCMTRKPGA
B3: 22078 (protein)
chain: MALPVTALLLPLALLLHAARPQLQLQESGPGLVKPSETLSLTCTVSGDSISSGDYYWGWIRQPPGKGLEWIGHIYYSGVTYYNPSLKSRVTISVDTSRNQFSLKLSSVTAADTAVYYCTREDSSNWRSRGQGTLVTVSSLESGGGGSFEEVQLLESGGGLVQPGGSLRLSCAASGFTFSSYAMSWVRQAPGKGLEWVSSISGSGDYIYYADSVKGRFTISRDISKNTLYLQMNSLRAEDTAVYYCAKEGTGANSSLADYRGQGTLVTVSSTRASTKGPSVFPLAPSSKSTSGGTAALGCLVKDYFPEPVTVSWNSGALTSGVHTFPAVLQSSGLYSLSSVVTVPSSSLGTQTYICNVNHKPSNTKVDKRVEPKSCEVKTDSTDHVKPKETENTKQPSKSCHKPKAIVHTEKVNMMSLTVLGLRMLFAKTVAVNFLLTAKLFFLRAKRSGSGVKQTLNFDLLKLAGDVESNPGPSRGHMTEYKPTVRLATRDDVPRAVRTLAAAFADYPATRHTVDPDRHIERVTELQELFLTRVGLDIGKVWVADDGAAVAVWTTPESVEAGAVFAEIGPRMAELSGSRLAAQQQMEGLLAPHRPKEPAWFLATVGVSPDHQGKGLGSAVVLPGVEAAERAGVPAFLETSAPRNLPFYERLGFTVTADVEVPEGPRTWCMTRKPGA
B4: 22089 (protein)
chain: MALPVTALLLPLALLLHAARPQLQLQESGPGLVKPSETLSLTCTVSGDSISSGDYYWGWIRQPPGKGLEWIGHIYYSGVTYYNPSLKSRVTISVDTSRNQFSLKLSSVTAADTAVYYCTREDSSNWRSRGQGTLVTVSSLEGSGRADCGFTSESYQQGVLSATILYEILLGKATLYAVLVSALVLMAMVKRKDSRGRAKRSGSGATNFSLLKQAGDVEENPGPTSMDWIWRILFLVGAATGAHSFEVQLLESGGGLIQPGGSLRLSCAASGFTFSSHAMTWVRQAPGKGLEWVSAISGSGDYTHYADSVKGRFTISRDNSKNTVYLQMNSLRAEDSAVYYCAKDEDGGSLLGHRGQGTLVTVSSTRIQNPDPAVYQLRDSKSSDKSVCLFTDFDSQTNVSQSKDSDVYITDKCVLDMRSMDFKSNSAVAWSNKSDFACANAFNNSIIPEDTFFPSPESSCDVKLVEKSFETDTNLNFQNLSVIGFRILLLKVAGFNLLMTLRLWSSRAKRSGSGVKQTLNFDLLKLAGDVESNPGPSRGHMTEYKPTVRLATRDDVPRAVRTLAAAFADYPATRHTVDPDRHIERVTELQELFLTRVGLDIGKVWVADDGAAVAVWTTPESVEAGAVFAEIGPRMAELSGSRLAAQQQMEGLLAPHRPKEPAWFLATVGVSPDHQGKGLGSAVVLPGVEAAERAGVPAFLETSAPRNLPFYERLGFTVTADVEVPEGPRTWCMTRKPGA
B5: 22165 (protein)
chain: MALPVTALLLPLALLLHAARPACEVQLLESGGGLIQPGGSLRLSCAASGFTFSSHAMTWVRQAPGKGLEWVSAISGSGDYTHYADSVKGRFTISRDNSKNTVYLQMNSLRAEDSAVYYCAKDEDGGSLLGHRGQGTLVTVSSGTGGGGSGGGGSGGGGSEFDIQMTQSPSSLSASVGDRVTITCKASDHINNWLAWYQQKPGQAPKLLIYGATTLETGVPSRFSGSGSGTDYTLTISSLQPEDFATYYCQQSWNTPWTFGQGTKLEIKRLEDLKNVFPPEVAVFEPSEAEISHTQKATLVCLATGFYPDHVELSWWVNGKEVHSGVCTDPQPLKEQPALNDSRYCLSSRLRVSATFWQNPRNHFRCQVQFYGLSENDEWTQDRAKPVTQIVSAEAWGRADCGFTSESYQQGVLSATILYEILLGKATLYAVLVSALVLMAMVKRKDSRGRAKRSGSGATNFSLLKQAGDVEENPGPTSATMDWIWRILFLVGAATGAHSGPEVQLVESGGGLVQAGGSLRLSCAASGRTFSMGWFRQAPGKEREFVAAITYSGGSPYYADSVKGRFTISRDNAKNTVYLQMNSLKPEDTAVYYCAANPTYGSDWNAENWGQGTQVTVSSGSGGGGSGGGGSGGGGSFEQVQLQQPGAELVKPGASVKMSCKASGYAFSSYWINWMKQKPGQGLEWIGQIYPGDGDTNYNGKFKGRATLTADTSSSTAYMQLSSLTSEDSAVYFCARSITTVVGCAMDYWGQGTSVTVSSTRIQNPDPAVYQLRDSKSSDKSVCLFTDFDSQTNVSQSKDSDVYITDKCVLDMRSMDFKSNSAVAWSNKSDFACANAFNNSIIPEDTFFPSPESSCDVKLVEKSFETDTNLNFQNLSVIGFRILLLKVAGFNLLMTLRLWSSRAKRSGSGVKQTLNFDLLKLAGDVESNPGPSRGHMTEYKPTVRLATRDDVPRAVRTLAAAFADYPATRHTVDPDRHIERVTELQELFLTRVGLDIGKVWVADDGAAVAVWTTPESVEAGAVFAEIGPRMAELSGSRLAAQQQMEGLLAPHRPKEPAWFLATVGVSPDHQGKGLGSAVVLPGVEAAERAGVPAFLETSAPRNLPFYERLGFTVTADVEVPEGPRTWCMTRKPGA
B6: 22147 (protein)
chain: MALPVTALLLPLALLLHAARPACEVQLLESGGGLIQPGGSLRLSCAASGFTFSSHAMTWVRQAPGKGLEWVSAISGSGDYTHYADSVKGRFTISRDNSKNTVYLQMNSLRAEDSAVYYCAKDEDGGSLLGHRGQGTLVTVSSGTGGGGSGGGGSGGGGSEFDIQMTQSPSSLSASVGDRVTITCRASQDISNYLNWYQQKPGKAVKLLIYYTSILHSGVPSRFSGSGSGTDYTLTISSLQPEDFATYFCQQGNTLPWTFGGGTKVEIKLEADVSPKPTIFLPSIAETKLQKAGTYLCLLEKFFPDVIKIHWQEKKSNTILGSQEGNTMKTNDTYMKFSWLTVPEKSLDKEHRCIVRHENNKNGVDQEIIFPPIKTDVITMDPKDNCSKDANDTLLLQLTNTSAYYMYLLLLLKSVVYFAIITCCLLRRTAFCCNGEKSRAKRSGSGATNFSLLKQAGDVEENPGPTSMDWIWRILFLVGAATGAHSGPQVQLQESGGGLAQAGGSLRLSCAASGRTFSMGWFRQAPGKEREFVAAITYSGGSPYYASSVRGRFTISRDNAKNTVYLQMNSLKPEDTAVYYCAANPTYGSDWNAENWGQGTQVTVSSGSGGGGSGGGGSGGGGSFEVQLVESGGGLVKPGGSLKLSCAASGFAFSIYDMSWVRQAPGKGLEWVAYISSGGGTTYYPDTVKGRFTISRDNAKNTLYLQMSSLRAEDTAMYYCARHSGYGSSYGVLFAYWGQGTLVTVSSTRPHTKPSVFVMKNGTNVACLVKEFYPKDIRINLVSSKKITEFDPAIVISPSGKYNAVKLGKYEDSNSVTCSVQHDNKTVHSTDFEVKTDSTDHVKPKETENTKQPSKSCHKPKAIVHTEKVNMMSLTVLGLRMLFAKTVAVNFLLTAKLFFLRAKRSGSGVKQTLNFDLLKLAGDVESNPGPSRGHMTEYKPTVRLATRDDVPRAVRTLAAAFADYPATRHTVDPDRHIERVTELQELFLTRVGLDIGKVWVADDGAAVAVWTTPESVEAGAVFAEIGPRMAELSGSRLAAQQQMEGLLAPHRPKEPAWFLATVGVSPDHQGKGLGSAVVLPGVEAAERAGVPAFLETSAPRNLPFYERLGFTVTADVEVPEGPRTWCMTRKPGA

Test system: L363 cells
Test: JNG assay, co-culture with L363 cells
Type: cell-based
Settings: co-culture with L363
How it was run: (§1)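 Jurkat-NFAT-GFP (JNG) cells stably expressing SAR constructs via lentiviral transduction and puromycin/blasticidin selection were cocultured with target cells at E:T ~1:2 for ~4–18 h. NFAT-driven GFP was measured by FACS versus parental JNG cells; scores +/- to 5+ denote ~5–50% GFP-positive cells.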

Molecule	NFAT-GFP ASSAY: L363
B1	2+ (refer to approximately 5%, 10%, 20%, 30%, 40% and 50% GFP positive cells)
B2	+ (refer to approximately 5%, 10%, 20%, 30%, 40% and 50% GFP positive cells)
B3	+/- (refer to approximately 5%, 10%, 20%, 30%, 40% and 50% GFP positive cells)
B4	2+ (refer to approximately 5%, 10%, 20%, 30%, 40% and 50% GFP positive cells)
B5	Raji (+), L363 (+) (refer to approximately 5%, 10%, 20%, 30%, 40% and 50% GFP positive cells)
B6	+ (refer to approximately 5%, 10%, 20%, 30%, 40% and 50% GFP positive cells)

Test system: RAJI cells
Test: JNG assay, co-culture with RAJI cells
Type: cell-based
Settings: JNG cells expressing construct, co-culture with Raji
How it was run: as §1

Molecule	NFAT-GFP ASSAY: Raji
B1	+ (refer to approximately 5%, 10%, 20%, 30%, 40% and 50% GFP positive cells)
B2	+/- (refer to approximately 5%, 10%, 20%, 30%, 40% and 50% GFP positive cells)
B3	+/- (refer to approximately 5%, 10%, 20%, 30%, 40% and 50% GFP positive cells)
B4	+ (refer to approximately 5%, 10%, 20%, 30%, 40% and 50% GFP positive cells)
B5	Raji (+), L363 (+) (refer to approximately 5%, 10%, 20%, 30%, 40% and 50% GFP positive cells)
B6	+ (refer to approximately 5%, 10%, 20%, 30%, 40% and 50% GFP positive cells)
